Assays:
healthy rats = test: Administration of recombinant CIRP to healthy rats; format: in vivo, rat
Description: (§1) As an index of the inflammatory cytokine cascade and the acute inflammatory response, supernatants from cells incubated with recombinant CIRP were measured for TNF-α and IL-6 levels in serum, tissue homogenates, and culture medium grown with macrophages using a commercially available enzyme-linked immunosorbent assay (ELISA) kits (BioSource International, Camarillo, Calif.) according to the manufacturer's instruction. To quantify TNF-α and IL-6 protein levels in serum and tissue, serum samples were harvested 4 h after hemorrhage, or 4 h after treatment with recombinant CIRP from animals by cardiac puncture at the time that the rats were sacrificed, and collected tissue samples, and carried out by the same method as above. HMGB1 levels were determined by Western blotting.
Serum concentrations of aspartate aminotransferase (AST), alanine aminotransferase (ALT), and lactate were determined by using assay kits according to the manufacturer's instructions (Pointe Scientific, Lincoln Park, Mich.).
Healthy rats were intravenously administered rmCIRP (1 mg/kg BW) or normal saline (vehicle). After the injection of rCIRP (1 mg/kg BW) or buffer solution (same volume), as control, serum levels of TNF-α increased markedly in the rCIRP group, about 5 fold higher than buffer (sham) group (FIG. 4A). […] RAW 264.7 cells were incubated with indicated concentrations of rmCIRP for 20 h. HMGB1 levels in conditioned medium (CM) were determined by Western blotting. Band intensities were quantified with densitometry. […] After 4 hours, blood and tissues were collected for analysis. […] Data are mean±s.e.m., n=6-9/group, *P<0.05 vs. vehicle.
In additional groups of normal healthy animals, rCIRP, for example rmCIRP (1 mg/kg BW) or buffer (same volume, 1 ml) were administered. At 4 h after the completion of treatment, blood samples were collected and placed on ice to allow clotting, and then were centrifuged at 1200 g for 10 min at 4° C., and the serum samples were stored at −80° C. until assayed. […]

RAW 264.7 cells = test: Cytokine release from RAW 264.7 cells stimulated with recombinant CIRP; format: cell-based, murine; conditions: for TNF-α release from RAW 264.7 cells (in words): 100 ng/ml, 4 h, or indicated concentrations and times
Description: Murine macrophage-like RAW 264.7 cells were obtained from ATCC (American Type Culture Collection, Manassas, Va.), and were grown in Dulbecco's Modified Eagle's Medium (DMEM, Life Technologies, Grand Island, N.Y.) containing 10% (vol/vol) FBS (heat-inactivated at 56° C. for 30 min), 100 U/ml penicillin, 100 μg/ml streptomycin and 2 mM glutamine. Cells were re-suspended in medium and incubated in 6 or 48-well tissue-culture plates overnight in a humidified incubator (37° C., 5% CO2). In the experiments, cell monolayers were stimulated with or without recombinant CIRP at various indicated concentrations and for various indicated times. The cell-free supernatants were assayed for TNF-α by ELISA or for HMGB1 by western blot analysis.
as §1
To address whether the extracellular CIRP could function as an inflammatory mediator, recombinant murine CIRP (rmCIRP) was expressed and purified using a bacterial expression system with more than 97% purity and confirmation by Western blotting (FIGS. 16A and B). […] J. Immunol. 174, 3306-3316 (2005); Henderson, B., et al. The extracellular signaling actions of molecular chaperones are not due to microbial contaminants. Cell Stress Chaperones 15, 123-141 (2010)). […]
In parallel experiments, cytokines in the supernatant of cultured RAW cells incubated with rCIRP were measured. […]

B1: rmCIRP: recombinant murine (rat sequence) His-tagged CIRP expressed in E. coli (protein)
chain: MASDEGKLFVGGLSFDTNEQALEQVFSKYGQISEVVVVKDRETQRSRGFGFVTFENIDDAKDAMMAMNGKSVDGRQIRVDQAGKSSDNRSRGYRGGSAGGRGFFRGGRSRGRGFSRGGGDRGYGGGRFESRSGGYGGSRDYYASRSQGGSYGYRSSGGSYRDSYDSYATHNEHHHHHH
Healthy rats; 1 mg/kg BW
  serum TNF-α versus buffer (sham) group: about 5 fold
Healthy rats; 1 mg/kg BW intravenous, 4 hours, vs normal saline
  serum TNF-α, IL-6, HMGB1 levels and organ injury markers AST and ALT: significantly increased
Healthy rats; 1 mg/kg BW, normal healthy rats
  serum levels of AST and ALT: significantly elevated
RAW 264.7 cells
  TNF-α release from RAW 264.7 cells (in words): increased TNF-α release in a dose- and time-dependent manner
RAW 264.7 cells; listed as rCIRP
  TNF-α release from RAW 264.7 cells (in words): significantly increased TNF-α release
RAW 264.7 cells; 500 ng/ml, 20 h incubation, Western blot
  increase of HMGB1 release from cultured RAW cells: about 6 fold
